# Assay results from article PMC9354048.
# Molecular target: (opt)EsTKγ (Eptatretus stouti thread keratin γ, from a codon-optimised gene) (Eptatretus stouti)
# Assay: co-assembly by dialysis out of urea, gel separated by ultrafiltration centrifugation and analysed by SDS-PAGE; crudely purified proteins, each 1.0 mg/ml in 8 M urea, 0.02 M NaH2PO4, 0.5 M NaCl, mixed 1:1; gradient dialysis 8 M to 4 M to 2 M to 0 M urea in 2 mM Tris, 1 mM DTT, pH 9, 4°C, 72 h; concentrated in a 10 kDa ultrafiltration tube; gel-like product picked up, diluted and run on SDS-PAGE
substance,measurement,value
"(opt)EsTKα (Eptatretus stouti thread keratin α, from a codon-optimised gene) (natural protein)",stoichiometry N,1
